Laboratory results taken from article PMC12090190 (ACS Chemical Biology, 2025).

T1: WT hOTC (human ornithine transcarbamylase) (Homo sapiens, UniProt P00480)
T1 sequence (P00480 33-354): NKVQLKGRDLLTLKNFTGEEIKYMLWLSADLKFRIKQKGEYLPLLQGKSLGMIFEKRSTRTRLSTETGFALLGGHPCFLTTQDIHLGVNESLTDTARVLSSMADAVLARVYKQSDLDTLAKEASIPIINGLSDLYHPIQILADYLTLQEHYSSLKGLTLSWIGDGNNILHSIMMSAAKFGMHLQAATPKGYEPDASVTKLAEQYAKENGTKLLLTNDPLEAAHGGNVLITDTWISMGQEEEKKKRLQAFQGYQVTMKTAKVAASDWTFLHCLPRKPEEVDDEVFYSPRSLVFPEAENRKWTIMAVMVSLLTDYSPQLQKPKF

B1: WT hOTC (human ornithine transcarbamylase) (Homo sapiens) (protein)
chain: NKVQLKGRDLLTLKNFTGEEIKYMLWLSADLKFRIKQKGEYLPLLQGKSLGMIFEKRSTRTRLSTETGFALLGGHPCFLTTQDIHLGVNESLTDTARVLSSMADAVLARVYKQSDLDTLAKEASIPIINGLSDLYHPIQILADYLTLQEHYSSLKGLTLSWIGDGNNILHSIMMSAAKFGMHLQAATPKGYEPDASVTKLAEQYAKENGTKLLLTNDPLEAAHGGNVLITDTWISMGQEEEKKKRLQAFQGYQVTMKTAKVAASDWTFLHCLPRKPEEVDDEVFYSPRSLVFPEAENRKWTIMAVMVSLLTDYSPQLQKPKF

What was measured:
[1] = biological target: T1, WT hOTC (human ornithine transcarbamylase); assay: differential scanning fluorimetry; assay type: binding; details: 4 μM enzyme; 10 mM sodium phosphate
[2] = substrate: NC(=O)OP(=O)(O)O; assay: discontinuous colorimetric citrulline assay, steady-state kinetics; assay type: biochemical, Homo sapiens; details: co-substrate ornithine

Molecule	dTm [1]	Km [2]	kcat [2]	kcat/Km [2]
O=P(O)(O)O [phosphate]	The addition of phosphate generally increased the melting temperature of these variants	–	–	–
B1	–	240 ± 70 µM	56 ± 9.8 s⁻¹	240000 ± 29000 M⁻¹ s⁻¹
